Assay results taken from patent US20260242478A1 (published 2026).
Where no end group is shown, it is not given here.

Experiments:
[1] = molecular target: T1, Anti-CD28 Fab (SEQ ID NOs: 696, 697); assay: phage ELISA; clonal phage supernatant on biotinylated anti-CD28 Fab captured on neutravidin, anti-M13 HRP detection
T1 construct: In the phage ELISA the Fab was biotinylated and captured on neutravidin coated plates
T1 sequence (VH, as listed by the source, chain 1 of 2): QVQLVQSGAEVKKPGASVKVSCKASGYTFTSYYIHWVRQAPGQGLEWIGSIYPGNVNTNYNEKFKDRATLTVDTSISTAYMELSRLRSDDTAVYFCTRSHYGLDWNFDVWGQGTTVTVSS
T1 sequence (VL, as listed by the source, chain 2 of 2): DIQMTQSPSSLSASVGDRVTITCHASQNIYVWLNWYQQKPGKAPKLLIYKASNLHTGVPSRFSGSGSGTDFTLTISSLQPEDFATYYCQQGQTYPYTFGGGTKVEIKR
Procedure: (§1) After panning, phage infected bacteria were plated out and colonies picked into 96 well blocks. Clonal phage was then amplified and separated from bacterial cells via centrifugation.
(§2) Clonal phage were harvested as crude supematants and screened via standard ELISAs. […] Prior to the addition of clonal phage, wells were incubated with blocking buffer and CD28 antigen or blocking buffer alone. Without washing or aspirating, clonal phage supematants were then added to the wells and incubated for a short time. Wells were then washed followed by detection of bound phage using a horse radish conjugated anti-M13 antibody. Clonal phage of interest were then sent for sequence analysis.

[2] = molecular target: T1, Anti-CD28 Fab (SEQ ID NOs: 696, 697); assay: phage ELISA on captured anti-CD28 Fab; competitor: CD28 antigen pre-incubated on the Fab
Procedure: as §1, §2

[3] = molecular target: Anti-CD28 Fab (SEQ ID NOs: 696, 697); assay: phage binding ELISA on captured anti-CD28 Fab; competitor: CD28 antigen preincubated in the wells
Target sequence in this assay (VH, as listed by the source, chain 1 of 2): as the sequence (VH, as listed by the source, chain 1 of 2) above
Target sequence in this assay (VL, as listed by the source, chain 2 of 2): as the sequence (VL, as listed by the source, chain 2 of 2) above

[4] = molecular target: Anti-CD28 Fab (SEQ ID NOs: 696, 697); assay: phage binding ELISA; biotinylated anti-CD28 Fab on neutravidin plate, clonal phage supernatant, anti-M13 HRP detection
Target sequence in this assay (VH, as listed by the source, chain 1 of 2): as the sequence (VH, as listed by the source, chain 1 of 2) above
Target sequence in this assay (VL, as listed by the source, chain 2 of 2): as the sequence (VL, as listed by the source, chain 2 of 2) above

[5] = molecular target: T2, Anti-CD28 Fab (SEQ ID NOs: 696, 697); assay: as above
T2 construct: In the phage ELISA the Fab was biotinylated and captured on neutravidin coated plates
T2 sequence (VH, as listed by the source, chain 1 of 2): as the sequence (VH, as listed by the source, chain 1 of 2) above
T2 sequence (VL, as listed by the source, chain 2 of 2): as the sequence (VL, as listed by the source, chain 2 of 2) above

[6] = molecular target: T2, Anti-CD28 Fab (SEQ ID NOs: 696, 697); assay: phage binding ELISA; Fab-coated wells pre-incubated with CD28 antigen as competitor, anti-M13 HRP detection;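 also: crude clonal phage supernatants from panned colonies added to wells after blocking buffer plus CD28 treatment, bound phage measured after a brief incubation and washing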
[7] = molecular target: T3, Anti-CD28 Fab (SEQ ID NOs: 696, 697); assay: phage ELISA; biotinylated anti-CD28 Fab on neutravidin plate, clonal phage supernatant, anti-M13 HRP
T3 construct: Biotinylated and captured on neutravidin coated plates in the phage ELISA
T3 sequence (VH, as listed by the source, chain 1 of 2): as the sequence (VH, as listed by the source, chain 1 of 2) above
T3 sequence (VL, as listed by the source, chain 2 of 2): as the sequence (VL, as listed by the source, chain 2 of 2) above

[8] = molecular target: T3, Anti-CD28 Fab (SEQ ID NOs: 696, 697); assay: phage ELISA; captured anti-CD28 Fab pre-incubated with CD28 antigen as competitor, anti-M13 HRP;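 also: crude clonal phage supernatants added without washing after CD28 pre-incubation, bound phage detected with HRP anti-M13 antibody, reference wells got blocking buffer lacking CD28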
Procedure: as §1, §2

YCEGHSSEYMWKCL [Phage-940]
Anti-CD28 Fab signal (phage binding ELISA) [1]: 1.63 | Anti-CD28 Fab signal in the presence of CD28 (phage binding ELISA) [2]: 0.09

YCAGHSLEYMQKCL [Phage-937]
Anti-CD28 Fab signal (phage binding ELISA) [1]: 1.63 | Anti-CD28 Fab signal in the presence of CD28 (phage binding ELISA) [2]: 0.07

YCEGHDLIYMWKCL [Phage-938]
Anti-CD28 Fab signal (phage binding ELISA) [1]: 1.63 | Anti-CD28 Fab signal in the presence of CD28 (phage binding ELISA) [2]: 0.06

YCEGHLEQYMQKCL [Phage-942]
Anti-CD28 Fab signal (phage binding ELISA) [1]: 1.63 | Anti-CD28 Fab signal in the presence of CD28 (phage binding ELISA) [2]: 0.06

B1: Phage-917 (peptide)
peptide: YCDGHSPEYIGKCL
notes: Peptide-87 library clone, tested as clonal phage supernatant with the peptide fused to the pIII filament of the bacteriophage
Anti-CD28 Fab signal in the presence of CD28 (phage binding ELISA) [3]: 0.07 | Anti-CD28 Fab signal (phage binding ELISA) [4]: 1.66

B2: Phage-927 (Peptide-87 library clone, SEQ ID NO: 1243) (peptide)
peptide: YCDGHAQEYRLKCL
modifications: cysteine pairing not given here; also: displayed fused to phage pIII protein, fusion end and linker not given here
notes: Tested as clonal phage supernatant; not shown: fused to the pIII filament protein of the bacteriophage
Anti-CD28 Fab signal (phage binding ELISA) [5]: 1.65 | Anti-CD28 Fab signal in the presence of CD28 (phage binding ELISA) [6]: 0.07

YCEGHTAEHMQKCL [Phage-932]
Anti-CD28 Fab signal (phage binding ELISA) [1]: 1.64 | Anti-CD28 Fab signal in the presence of CD28 (phage binding ELISA) [2]: 0.05

B3: Phage-916 (peptide)
peptide: YCEGHLSQYMSKCL
notes: as for B1
Anti-CD28 Fab signal in the presence of CD28 (phage binding ELISA) [3]: 0.07 | Anti-CD28 Fab signal (phage binding ELISA) [4]: 1.66

YCAGHLAIYMSKCL [Phage-947]
Phage binding ELISA, Anti-CD28 Fab signal [7]: 1.63 | Phage binding ELISA, Anti-CD28 Fab signal in the presence of CD28 [8]: 0.08

YCEGHSWVYMAKCL [Phage-943]
Anti-CD28 Fab signal (phage binding ELISA) [1]: 1.63 | Anti-CD28 Fab signal in the presence of CD28 (phage binding ELISA) [2]: 0.07

B4: Phage-923 (Peptide-87 library clone, SEQ ID NO: 1239) (peptide)
peptide: YCEGHLAVYMEKCL
modifications: cysteine pairing not given here; also: displayed fused to phage pIII protein, fusion end and linker not given here
notes: as for B2
Anti-CD28 Fab signal (phage binding ELISA) [5]: 1.65 | Anti-CD28 Fab signal in the presence of CD28 (phage binding ELISA) [6]: 0.12

B5: Phage-929 (Peptide-87 library clone, SEQ ID NO: 1245) (peptide)
peptide: YCDGHGPQYIQKCL
modifications: cysteine pairing not given here; also: displayed fused to phage pIII protein, fusion end and linker not given here
notes: as for B2
Anti-CD28 Fab signal (phage binding ELISA) [5]: 1.64 | Anti-CD28 Fab signal in the presence of CD28 (phage binding ELISA) [6]: 0.07

B6: Phage-920 (Peptide-87 library clone, SEQ ID NO: 1236) (peptide)
peptide: YCDGHDVEYMAKCL
modifications: cysteine pairing not given here; also: fused to phage pIII
notes: as for B2
Anti-CD28 Fab signal (phage binding ELISA) [5]: 1.66 | Anti-CD28 Fab signal in the presence of CD28 (phage binding ELISA) [6]: 0.07

YCAGHVAEYMAKCL [Phage-933]
Anti-CD28 Fab signal (phage binding ELISA) [1]: 1.64 | Anti-CD28 Fab signal in the presence of CD28 (phage binding ELISA) [2]: 0.06

YCDGHDVEYMSKCL [Phage-936]
Anti-CD28 Fab signal (phage binding ELISA) [1]: 1.64 | Anti-CD28 Fab signal in the presence of CD28 (phage binding ELISA) [2]: 0.05

YCDGHSEAFMQKCL [Phage-945]
Phage binding ELISA, Anti-CD28 Fab signal [7]: 1.63 | Phage binding ELISA, Anti-CD28 Fab signal in the presence of CD28 [8]: 0.07

B7: Phage-921 (Peptide-87 library clone, SEQ ID NO: 1237) (peptide)
peptide: YCDGHSEVYMAKCL
modifications: cysteine pairing not given here; also: fused to phage pIII
notes: as for B2
Anti-CD28 Fab signal (phage binding ELISA) [5]: 1.66 | Anti-CD28 Fab signal in the presence of CD28 (phage binding ELISA) [6]: 0.06

YCAGHAPEYMSKCL [Phage-939]
Anti-CD28 Fab signal (phage binding ELISA) [1]: 1.63 | Anti-CD28 Fab signal in the presence of CD28 (phage binding ELISA) [2]: 0.05

YCDGHATEYMQKCL [Phage-934]
Anti-CD28 Fab signal (phage binding ELISA) [1]: 1.64 | Anti-CD28 Fab signal in the presence of CD28 (phage binding ELISA) [2]: 0.1

YCEGHMWEYMAKCL [Phage-935]
Anti-CD28 Fab signal (phage binding ELISA) [1]: 1.64 | Anti-CD28 Fab signal in the presence of CD28 (phage binding ELISA) [2]: 0.13

YCDGHLDVYRAKCL [Phage-941]
Anti-CD28 Fab signal (phage binding ELISA) [1]: 1.63 | Anti-CD28 Fab signal in the presence of CD28 (phage binding ELISA) [2]: 0.09

B8: Phage-922 (Peptide-87 library clone, SEQ ID NO: 1238) (peptide)
peptide: YCDGHSLLYLSKCL
modifications: cysteine pairing not given here; also: fused to phage pIII
notes: as for B2
Anti-CD28 Fab signal (phage binding ELISA) [5]: 1.65 | Anti-CD28 Fab signal in the presence of CD28 (phage binding ELISA) [6]: 0.07

YCEGHVTEYMQKCL [Phage-949]
Phage binding ELISA, Anti-CD28 Fab signal [7]: 1.62 | Phage binding ELISA, Anti-CD28 Fab signal in the presence of CD28 [8]: 0.08

B9: Phage-928 (Peptide-87 library clone, SEQ ID NO: 1244) (peptide)
peptide: YCDGHSAEYLLKCL
modifications: cysteine pairing not given here; also: displayed fused to phage pIII protein, fusion end and linker not given here
notes: as for B2
Anti-CD28 Fab signal (phage binding ELISA) [5]: 1.65 | Anti-CD28 Fab signal in the presence of CD28 (phage binding ELISA) [6]: 0.07

B10: Phage-918 (Peptide-87 library clone, SEQ ID NO: 1234) (peptide)
peptide: YCAGHLPEFMDKCL
modifications: cysteine pairing not given here; also: fused to phage pIII
notes: as for B2
Anti-CD28 Fab signal (phage binding ELISA) [5]: 1.66 | Anti-CD28 Fab signal in the presence of CD28 (phage binding ELISA) [6]: 0.06

YCDGHLSEYMSKCL [Phage-948]
Phage binding ELISA, Anti-CD28 Fab signal [7]: 1.62 | Phage binding ELISA, Anti-CD28 Fab signal in the presence of CD28 [8]: 0.06

YCDGHAQEYMDKCL [Phage-950]
Phage binding ELISA, Anti-CD28 Fab signal [7]: 1.62 | Phage binding ELISA, Anti-CD28 Fab signal in the presence of CD28 [8]: 0.08

YCEGHSAQYMHKCL [Phage-931]
Anti-CD28 Fab signal (phage binding ELISA) [1]: 1.64 | Anti-CD28 Fab signal in the presence of CD28 (phage binding ELISA) [2]: 0.06

B11: Phage-930 (Peptide-87 library clone, SEQ ID NO: 1246) (peptide)
peptide: YCEGHIAEYMQKCL
modifications: cysteine pairing not given here; also: displayed fused to phage pIII protein, fusion end and linker not given here
notes: as for B2
Anti-CD28 Fab signal (phage binding ELISA) [5]: 1.64 | Anti-CD28 Fab signal in the presence of CD28 (phage binding ELISA) [6]: 0.13

YCEGHAPQYIMKCL [Phage-951]
Phage binding ELISA, Anti-CD28 Fab signal [7]: 1.62 | Phage binding ELISA, Anti-CD28 Fab signal in the presence of CD28 [8]: 0.06

YCDGHSLEYIGKCL [Phage-944]
Phage binding ELISA, Anti-CD28 Fab signal [7]: 1.63 | Phage binding ELISA, Anti-CD28 Fab signal in the presence of CD28 [8]: 0.06

B12: Phage-926 (Peptide-87 library clone, SEQ ID NO: 1242) (peptide)
peptide: YCDGHSVEYMEKCL
modifications: cysteine pairing not given here; also: displayed fused to phage pIII protein, fusion end and linker not given here
notes: as for B2
Anti-CD28 Fab signal (phage binding ELISA) [5]: 1.65 | Anti-CD28 Fab signal in the presence of CD28 (phage binding ELISA) [6]: 0.09

B13: Phage-924 (Peptide-87 library clone, SEQ ID NO: 1240) (peptide)
peptide: YCEGHSLMYMWKCL
modifications: cysteine pairing not given here; also: displayed fused to phage pIII protein, fusion end and linker not given here
notes: as for B2
Anti-CD28 Fab signal (phage binding ELISA) [5]: 1.65 | Anti-CD28 Fab signal in the presence of CD28 (phage binding ELISA) [6]: 0.08

YCAGHLPEYMGKCL [Phage-946]
Phage binding ELISA, Anti-CD28 Fab signal [7]: 1.63 | Phage binding ELISA, Anti-CD28 Fab signal in the presence of CD28 [8]: 0.07

B14: Phage-919 (Peptide-87 library clone, SEQ ID NO: 1235) (peptide)
peptide: YCDGHSREYMNKCL
modifications: cysteine pairing not given here; also: fused to phage pIII
notes: as for B2
Anti-CD28 Fab signal (phage binding ELISA) [5]: 1.66 | Anti-CD28 Fab signal in the presence of CD28 (phage binding ELISA) [6]: 0.06

B15: Phage-925 (Peptide-87 library clone, SEQ ID NO: 1241) (peptide)
peptide: YCAGHAAEYMTKCL
modifications: cysteine pairing not given here; also: displayed fused to phage pIII protein, fusion end and linker not given here
notes: as for B2
Anti-CD28 Fab signal (phage binding ELISA) [5]: 1.65 | Anti-CD28 Fab signal in the presence of CD28 (phage binding ELISA) [6]: 0.07
